One assay deals with GABARAPL2 (human) (UniProt P60520). The assay can be described thus: fluorescence polarisation. On the technique in general: Polarisation of emitted light reports the rotation of a fluorescent probe.
Another assay addresses MAP1LC3B (human) (UniProt Q9GZQ8). Briefly: fluorescence polarisation; displacement of a FITC-labelled probe peptide (5 nM in the measurement) from the protein domain (1-2 fold over the probe's KD) by a dilution series of unlabelled peptide; room temperature; 50 mM sodium phosphate pH 7.4; KD calculated from the displacement curve; for KPNA4 ARM one probe for each pocket.
In the next assay the target is AP2 μ2 (human). The assay is described as above.
In another assay the target is KPNA4 ARM (human). The assay is described as above.
The next assay has as its target SNX27 PDZ (human) (UniProt Q96L92). The description is as above.
For another assay, the target named is RANBP2 RanBD4 (human). The description is as above.
Assay [1] addresses PDCD6IP Alix V domain (human). The description is as above.
A further assay has as its target TSG101 UEV (human) (UniProt Q99816). Described as above.
A further assay addresses GGA1 VHS (human) (UniProt Q9UJY5). The assay is described as above.

Data on 52 substances can be found in PMC10333884, “Large‐scale phosphomimetic screening identifies phospho‐modulated motif‐based protein interactions” (Molecular Systems Biology, 2023).

A word on the Kd: it is the equilibrium constant for the complex coming apart.

Chain of GGA1 VHS (human) (Q9UJY5 17-147): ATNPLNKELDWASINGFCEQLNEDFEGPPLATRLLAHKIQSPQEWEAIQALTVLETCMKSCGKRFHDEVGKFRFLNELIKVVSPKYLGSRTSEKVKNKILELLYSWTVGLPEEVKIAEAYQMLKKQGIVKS
Chain of GABARAPL2 (human) (P60520 whole entry, the tested form may be a part): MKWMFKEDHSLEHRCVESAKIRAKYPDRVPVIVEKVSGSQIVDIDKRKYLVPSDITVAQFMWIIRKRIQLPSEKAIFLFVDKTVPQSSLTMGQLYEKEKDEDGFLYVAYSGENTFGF
Chain of TSG101 UEV (human) (Q99816 2-145): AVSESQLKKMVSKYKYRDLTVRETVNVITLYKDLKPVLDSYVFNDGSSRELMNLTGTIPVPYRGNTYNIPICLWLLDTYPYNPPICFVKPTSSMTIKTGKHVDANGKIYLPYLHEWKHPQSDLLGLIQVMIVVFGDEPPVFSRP
Chain of DAXX_(606–616), phosphorylated (pS) (Q9UER7 whole entry, looked up, tested part not stated): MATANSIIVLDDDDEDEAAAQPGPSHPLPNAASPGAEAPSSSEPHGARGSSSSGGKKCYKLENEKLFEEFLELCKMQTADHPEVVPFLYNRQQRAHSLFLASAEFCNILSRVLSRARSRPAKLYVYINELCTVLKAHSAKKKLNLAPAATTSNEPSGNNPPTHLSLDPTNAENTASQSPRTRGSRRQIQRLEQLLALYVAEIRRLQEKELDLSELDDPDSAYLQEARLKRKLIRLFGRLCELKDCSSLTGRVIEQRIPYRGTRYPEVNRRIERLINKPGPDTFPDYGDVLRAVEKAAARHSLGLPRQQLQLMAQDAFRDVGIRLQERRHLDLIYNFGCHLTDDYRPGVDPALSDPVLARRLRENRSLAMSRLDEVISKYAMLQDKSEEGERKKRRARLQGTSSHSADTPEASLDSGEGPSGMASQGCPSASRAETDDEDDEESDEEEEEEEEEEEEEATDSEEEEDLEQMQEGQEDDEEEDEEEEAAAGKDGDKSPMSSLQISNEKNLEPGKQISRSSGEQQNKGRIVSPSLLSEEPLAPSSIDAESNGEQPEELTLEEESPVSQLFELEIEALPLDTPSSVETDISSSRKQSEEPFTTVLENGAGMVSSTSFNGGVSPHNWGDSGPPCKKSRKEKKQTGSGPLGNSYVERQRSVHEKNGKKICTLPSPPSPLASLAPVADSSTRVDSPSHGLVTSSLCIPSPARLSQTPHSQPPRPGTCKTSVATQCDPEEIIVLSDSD
Chain of DAXX_(606–616), wild‐type (Q9UER7 whole entry, looked up, tested part not stated): as above
Chain of DAXX_(606–616), phosphomimetic (E) (Q9UER7 whole entry, looked up, tested part not stated): as above

For the substance “ATG4C_(444–458), phosphorylated (pS) (from UniProt Q96DT6 444-458) (peptide)”, the Kd is 0.1 µM in the assay with GABARAPL2 (human) and 1.9 µM in the assay with MAP1LC3B (human).
For the substance “BAIAPL1_(392–407), phosphomimetic (E) (from UniProt Q9UHR4 392-407) (peptide)”, the Kd in the assay with AP2 μ2 (human) was 0.49 µM.
Same read-out and setting: then “BAIAPL1_(392–407), phosphorylated (pS) (from UniProt Q9UHR4 392-407) (peptide)”, with 0.93 µM; and “BAIAPL1_(392–407), wild‐type (from UniProt Q9UHR4 392-407) (peptide)”, with 1.29 µM.
“CDC25A_(114–125), phosphomimetic (E) (from UniProt P30304 114-125) (peptide)”: in the assay with KPNA4 ARM (human), the KD, major pocket was 0.75 µM and the KD, minor pocket was 2.3 µM.
Turning to “CDC25A_(114–125), wild‐type (from UniProt P30304 114-125) (peptide)”, in the assay with KPNA4 ARM (human), the KD, major pocket was 8.8 µM and the KD, minor pocket was 0.2 µM.
Regarding “CDC25C_(30–44), phosphomimetic (E) (from UniProt P30307 30-44) (peptide)”, in the assay with SNX27 PDZ (human), the Kd was 680 µM.
On the same count and under the same terms, next, “CDC25C_(30–44), phosphorylated (pS) (from UniProt P30307 30-44) (peptide)”: 395 µM.
Still for that read-out and setting: then “CDC25C_(30–44), wild‐type (from UniProt P30307 30-44) (peptide)”, with 111 µM.
Same read-out and setting: then “DAXX_(606–616), phosphomimetic (E) (from UniProt Q9UER7 606-616) (peptide)”, with 23 µM; and “DAXX_(606–616), phosphorylated (pS) (from UniProt Q9UER7 606-616) (peptide)”, with 96 µM.
Take “DAXX_(606–616), wild‐type (from UniProt Q9UER7 606-616) (peptide)”: in the assay with SNX27 PDZ (human), the Kd is 300 µM.
As for “DHX38_(260–275), phosphorylated (pS) (from UniProt Q92620 260-275) (peptide)”, the Kd in the assay with RANBP2 RanBD4 (human) is 167 µM.
Take “DHX38_(260–275), wild‐type (from UniProt Q92620 260-275) (peptide)”: the Kd in the assay with RANBP2 RanBD4 (human) was 1500 µM.
As for “DLGAP4_(907–922), phosphomimetic (E) (from UniProt Q9Y2H0 907-922) (peptide)”, the Kd in the assay with GABARAPL2 (human) worked out at 260 µM.
Still for that read-out and setting: then “DLGAP4_(907–922), phosphorylated (pS) (from UniProt Q9Y2H0 907-922) (peptide)”, with 150 µM; and “DLGAP4_(907–922), wild‐type (from UniProt Q9Y2H0 907-922) (peptide)”, with 174 µM.
Regarding “FOXK1_(212–227), phosphomimetic (E) (from UniProt P85037 212-227) (peptide)”, the dissociation constant (Kd) in [1] was 13 µM.
“FOXK1_(212–227), phosphorylated (pS) (from UniProt P85037 212-227) (peptide)”: in assay [1], the Kd was 13 µM.
Consider “FOXK1_(212–227), wild‐type (from UniProt P85037 212-227) (peptide)”, for which the Kd in [1] is 25 µM.
On to “GJA1_(269–283), phosphomimetic (E) (from UniProt P17302 269-283) (peptide)”, for which the Kd in the assay with TSG101 UEV (human) was 115 µM.
For “GJA1_(269–283), phosphorylated (pS) (from UniProt P17302 269-283) (peptide)”, in the assay with TSG101 UEV (human), the Kd was 209 µM.
The same measure, in the same setting: next, “GJA1_(269–283), wild‐type (from UniProt P17302 269-283) (peptide)”: 232 µM.
In the case of “INTS6_(145–159), phosphomimetic (E) (from UniProt Q9UL03 145-159) (peptide)”, the Kd with RANBP2 RanBD4 (human) was 1080 µM.
Still for that read-out and setting: next, “INTS6_(145–159), phosphorylated (pS) (from UniProt Q9UL03 145-159) (peptide)”: 733 µM; “INTS6_(145–159), wild‐type (from UniProt Q9UL03 145-159) (peptide)”: 334 µM.
“JUN_(59–73), phosphorylated (pS) (from UniProt P05412 59-73) (peptide)”: in the assay with GGA1 VHS (human), the Kd was 1900 µM.
The same measure, in the same setting: then “JUN_(59–73), wild‐type (from UniProt P05412 59-73) (peptide)”, with 470 µM.
“OTUD5_(507–522), phosphomimetic (E) (from UniProt Q96G74 507-522) (peptide)”: the Kd in [1] is 88 µM.
Regarding “OTUD5_(507–522), phosphorylated (pS) (from UniProt Q96G74 507-522) (peptide)”, in assay [1], the Kd is 116 µM.
Regarding “OTUD5_(507–522), wild‐type (from UniProt Q96G74 507-522) (peptide)”, in assay [1], the dissociation constant Kd was 68 µM.
In the case of “PCBP1_(179–194), phosphomimetic (E) (from UniProt Q15365 179-194) (peptide)”, in the assay with AP2 μ2 (human), the dissociation constant Kd was 2.05 µM.
On to “PCBP1_(179–194), phosphorylated (pS) (from UniProt Q15365 179-194) (peptide)”, for which the Kd with AP2 μ2 (human) is 0.67 µM.
Same read-out and setting: then “PCBP1_(179–194), wild‐type (from UniProt Q15365 179-194) (peptide)”, with 3.7 µM.
As to “PDCD6IP_(711–725), wild‐type (from UniProt Q8WUM4 711-725) (peptide)”, the Kd with TSG101 UEV (human) was 16 µM.
On the same count and under the same terms, next, “PIP4P2_(17–32), phosphomimetic (E) (from UniProt Q8N4L2 17-32) (peptide)”: 18 µM; “PIP4P2_(17–32), phosphorylated (pS) (from UniProt Q8N4L2 17-32) (peptide)”: 16 µM.
The same measure, in the same setting: next, “PIP4P2_(17–32), wild‐type (from UniProt Q8N4L2 17-32) (peptide)”: 14 µM.
Turning to “RANBP3_(114–129), phosphomimetic (E) at p + 5 (from UniProt Q9H6Z4 114-129) (peptide)”, in the assay with KPNA4 ARM (human), the KD, major pocket was 0.8 µM and the KD, minor pocket was 61 µM.
The matching figures for “RANBP3_(114–129), phosphomimetic (E) at p + 6 (from UniProt Q9H6Z4 114-129) (peptide)”: 0.14 µM and 80 µM.
“RANBP3_(114–129), phosphorylated at p + 5 (from UniProt Q9H6Z4 114-129) (peptide)”: in the assay with KPNA4 ARM (human), the KD, major pocket was 1.13 µM and the KD, minor pocket is 167 µM.
On to “RANBP3_(114–129), phosphorylated at p + 6 (from UniProt Q9H6Z4 114-129) (peptide)”, for which, in the assay with KPNA4 ARM (human), the KD, major pocket was 0.22 µM and the KD, minor pocket is 20 µM.
Take “RANBP3_(114–129), wild‐type (from UniProt Q9H6Z4 114-129) (peptide)”: in the assay with KPNA4 ARM (human), the KD, major pocket was 0.15 µM and the KD, minor pocket is 68 µM.
As for “RNF11_(6–21), phosphomimetic (E) (from UniProt Q9Y3C5 6-21) (peptide)”, the Kd with GGA1 VHS (human) was 1000 µM.
Turning to “RNF11_(6–21), phosphorylated (pS) (from UniProt Q9Y3C5 6-21) (peptide)”, the Kd with GGA1 VHS (human) is 31 µM.
For the substance “RNF11_(6–21), wild‐type (from UniProt Q9Y3C5 6-21) (peptide)”, the Kd with GGA1 VHS (human) is 420 µM.
For “SQSTM1_(258–272), phosphomimetic (E) (from UniProt Q13501 258-272) (peptide)”, in the assay with KPNA4 ARM (human), the KD, major pocket is 5.3 µM and the KD, minor pocket was 41 µM.
The matching figures for “SQSTM1_(258–272), phosphorylated (pS) (from UniProt Q13501 258-272) (peptide)”: 50 µM and 248 µM.
The matching figures for “SQSTM1_(258–272), wild‐type (from UniProt Q13501 258-272) (peptide)”: 0.24 µM and 14 µM.
Regarding “TPD52L2_(91–106), phosphorylated (pS) (from UniProt O43399 91-106) (peptide)”, the Kd with MAP1LC3B (human) is 61 µM.
The same measure, in the same setting: next, “TPD52L2_(91–106), wild‐type (from UniProt O43399 91-106) (peptide)”: 760 µM.
As for “pS116 CDC25A_(114–125) (from UniProt P30304 114-125) (peptide)”, in the assay with KPNA4 ARM (human), the KD, major pocket is 0.63 µM and the KD, minor pocket is 2.8 µM.
